US10508147B2, “Anti-nodal antibodies and methods of using same” (ANN AND ROBERT H. LURIE CHILDREN'S HOSPITAL OF CHICAGO, priority 2014, dated 2019)
“Also recorded” adds a separate entry of the source.

Experiments:
hNodal(44-67) peptide [1] = assay: ELISA screening of hybridoma supernatants on coated hNodal(44-67) and hNodal(44-67)E49A-E50A; type: binding, human; conditions: ELISA
Description: (§1) Screening of hybridoma supernatants was carried out by ELISA coating the hNodal(44-67) BSA-conjugated peptide. Nine clones were positive. The pre-selected hybridoma supernatants were screened using in parallel hNodal(44-67) and its mutated variant hNodal(44-67)E49A-E50A. The assay was performed coating the unconjugated peptides at 330 nM and testing the hybridoma supernatants at a total protein concentration of 5.0 μg/mL (33 nM).
(§2) For hybridoma supernatants screening, hNodal(44-67) and hNodal(44-67)E49A-E50A were coated at 330 nM diluted in PBS on polystyrene conical flat bottom 96-well plates at 4° C. overnight (100 μL/well). After incubation, the coated wells were washed three times with PBS containing 0.005% Tween-20 (PBS-T) and non-specific binding sites were blocked by incubating with 1% BSA in PBS (300 μL/well) for 1 h at 37° C. After washing three times with PBS-T, supernatants of hybridomas diluted in PBS at 33 nM were incubated for 1 h at 37° C. (100 μL/well). […] After incubation and three washes with PBS-T, bound antibodies were detected by adding 100 μL/well of freshly prepared 0-phenylenediamine (0.4 mg/mL) containing H2O2 (0.4 mg/mL) in 0.1 M citrate buffer (pH 5.2) (SIGMAFAST™ OPD tablet Sigma-Aldrich). The peroxidase reaction was stopped after 5 min with 50 μL/well of 2.5 M H2SO4 and the optical density was measured at 490 nm, using a microplate reader. […]

hNodal(44-67) peptide [2] = biological target: T1, hNodal(44-67) peptide (Homo sapiens, UniProt Q96S42); assay: as above; type: binding; conditions: peptides coated at 330 nM; supernatants at 5.0 μg/mL (33 nM)
T1 construct: made in house; host or cells: chemical synthesis (Fmoc solid phase)
Description: as §1, §2

recombinant Nodal = biological target: T2, recombinant Nodal (Homo sapiens, UniProt Q96S42); assay: SPR dose-dependent binding of human recombinant Nodal to 3D1 immobilized on the CM5 sensor chip; parameters: E. coli derived His238 Leu347, with an N-terminal Met; purchased R&D System 3218ND; host or cells: E. coli; conditions: rhNodal injected, read-out: estimated KD
T2 sequence (Q96S42 238-347): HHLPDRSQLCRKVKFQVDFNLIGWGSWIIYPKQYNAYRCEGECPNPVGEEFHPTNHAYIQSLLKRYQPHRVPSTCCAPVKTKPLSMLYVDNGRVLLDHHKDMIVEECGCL
Text: Dose-dependent binding of human recombinant Nodal to 3D1 antibody immobilized on the CM5 sensor chip was characterized.

C8161 melanoma cells = assay: Soft agar clonogenic / anchorage independent growth assay; type: cell-based, human; conditions: three weeks in soft agar, vs untreated and IgG control
Description: Untreated cells, or cells treated with either IgG Control or 3D1 anti-Nodal antibody for 72 hours were cultured in soft agar for three weeks (soft agar clonogenic assay). […] C8161 cells were treated with either 4 μg/ml of either Santa Cruz (SC), or 3D1 function blocking anti-Nodal antibodies, or IgG Control and cultured in three dimensional cultures for 24 hours to measure their ability to engage in vasculogenic mimicry (VM).
C8161 melanoma cells (5,000 cells/well) were suspended in 0.35% agarose, RPMI 1640; 10% serum with of either 4 μg/ml mouse IgG control (Jackson ImmunoResearch, West Groove, Pa.) or 3D1 mAb (2.8 μg/ml) and were then overlayed onto a solidified layer of 0.5% agar; RPMI 1640; 10% serum in 6-well dishes. Cell clusters were allowed to form and were scored (50 cells or larger clusters) after 3 weeks in culture. Triplicate wells were averaged from separate experiments and presented as a percentage (mean±SEM) of IgG control.

B1: 3D1: mouse monoclonal anti-Nodal antibody raised against hNodal(44-67); light chain SEQ ID NO:1, heavy chains SEQ ID NO:2 and 3 (protein)
light: DIKMTQSPASLSASVGETVTITCRASGNIHNYLAWYQQKQGKSPQLLVYNAKTLADGVPSRFSGSGSGTQYSLKINSLQPEDFGSYYCQHFWSTPHVRCWDQAGTETEAW
heavy 1: VKLVESGGGLVKPGGSLKLSCAASGFTFSSYAMSWVRQTPEKRLEWVASISSGGCTYYPDSVKGRFTISRDNARNILYLQMSSLRSEDTAMYYCARGSMITADGNSLLLCYGLLGSRNLXHR
heavy 2: VKLVESGGGLVQPGGSMKLSCVASGFTFRNYWMSWVRQSPEKGLEWVAEIRLKSDNYAARYAESVKGKFTISRDDSKSRLYLQMNSLRAEDTGIYYCTGIRRFAYWGQGTL
modifications: not fully specified; (120)..(120) Xaa can be any naturally occurring amino acid
recognition of wild-type hNodal peptide versus E49A-E50A mutated variant (hNodal(44-67) peptide [1]): displayed selectivity for wild type Nodal peptide; also recorded: much better than the mutated variant; also recorded: recognizes less robustly the mutated peptide variant
recognition of the immobilized antigen hNodal(44-67) (hNodal(44-67) peptide [2]): recognized the immobilized antigen
Kd (recombinant Nodal): 6.6 nM
clonogenicity / anchorage independent growth in soft agar (C8161 melanoma cells): a decrease in clonogenicity
clonogenicity / anchorage independent growth in soft agar (C8161 melanoma cells; listed as 3D1 mAb): reduced ability to form non-adherent spheroidal clusters; also recorded: significant reduction in anchorage independent growth
